From the nanobody polyreactivity screen of Harvey et al. (2022)

Assay: yeast display, Sf9 membrane polyspecificity reagent, FACS + sequencing; frameworks hold sequencing errors
Summary of the method: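 Sorting gates, low and high (top ~1%), were placed on anti-HA fluorescence to track expression and on streptavidin fluorescence to track reagent binding. A clone's polyreactivity label is taken from the gate it came out of. The reagent was 10% biotinylated, detergent-solubilized Sf9 membrane, applied for 1 hour at 4 °C to galactose-induced yeast display cells.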

| Sequence | polyreactivity (PSR sort gate) |
| --- | --- |
| QVQLVESGGGLVQAGGSLRLSCAASGSIFDLYDMGWYRQAPGKERELVAAISLIGGSTSYADSVKGRFTISRDNAKNTVYLQMNSLKPEDTAVYYCAVEKFFRAEYDHWGQGTQVTVSS | low polyreactivity |
| QVQLVESGGGLVQAGGSLRLSCAASGSIFDPNAMGWYRQAPGKERELVAVITWSSSSTYYADSVKGRFTISRDNAKNTVYLQMNSLKPEDTAVYYCAAVVQGTTVWWGYDYWGQGTLVTVSS | low polyreactivity |
| QVQLVESGGGLVQAGGSLRLSCAASGSIFDRNAMGWYRQAPGKERELVAAISRSSGNTYYADSVKGRFTISRDNAKNTVYLQMNSLNPEDTAVYYCNKAVSYGTYKYYYWGQGTQVTVSS | high polyreactivity |
| QVQLVESGGGLVQAGGSLRLSCAASGSIFDRYAMGWYRQAPGKDRELVAAITWSGGSTRYADSVNGRFTISRDNAKNTVYLQMNILKPEDTAVYYCPASSTRWKVYYWGQGTQVTVSS | high polyreactivity |
| QVQLVESGGGLVQAGGSLRLSCAASGSIFDSNAMGWYRQAPGKERELVASIDRGGDTNYADSVKGRFTISRDNAKNTVYLQMNSLKPEDTAVYYCAAYYYKWVWIGMDYWGQGTQVTVSS | low polyreactivity |
| QVQLVESGGGLVQAGGSLRLSCAASGSIFDSYAMGWSRQAPGKERELVAAISWSGGSTYYADSVKGRFTISRDNAKNTVSLQMNSLKPEDTAVYYCNTDWADYYYYTDYDYWGQGTQVTVSS | high polyreactivity |
| QVQLVESGGGLVQAGGSLRLSCAASGSIFDSYAMGWYRQAPGKERELVADITSDGSTHYADSVKGRFTISRDNAKNSVYLQMNSLKPEDTAVYYCAAALPLVDFYDYWGQGTQVTVSS | low polyreactivity |
| QVQLVESGGGLVQAGGSLRLSCAASGSIFDTNAMGWYRQAPGKERELVAAINDSGGSTDYADSVKGRFTISRDNAKNTVYLQMNSLKPEDTAVYYCAADIYYTGYNGPEYYWVGMDYWGQGTQVTVSS | low polyreactivity |
| QVQLVESGGGLVQAGGSLRLSCAASGSIFDTYAMGWYRQAPGKERELVAAIRQSGARTYYADSVKGRFTISRDKAKNTVYLQMNSLKPEDTAVYYCAVSYHHYQTWYNYWGQGTQVTVSS | high polyreactivity |
| QVQLVESGGGLVQAGGSLRLSCAASGSIFDTYAMGWYRQAPGKERELVAAITQSGDRTYYADSVKGRFTISRDNAKNTVYLQMNSLKPEDTAVYYCNTRRGSAWSSDYWGQGTQVTVSS | low polyreactivity |
| QVQLVESGGGLVQAGGSLRLSCAASGSIFDTYAMGWYRQAPGKERELVATITRSGARTYYADSVKGRFTISRDNAKITVYLQMNSLKTEDTAVYYCAALYYDDFGYEYDYWGQGTQVTVSS | low polyreactivity |
| QVQLVESGGGLVQAGGSLRLSCAASGSIFDTYAMGWYRQAPGKERELVATITRSGARTYYADSVKGRFTISRDNAKNTVYLQMNSLKPEDTAVYYCAALYYDDFGYEYDYWGQGTQVTVSS | low polyreactivity |
| QVQLVESGGGLVQAGGSLRLSCAASGSIFDTYVMGWYRQAPGKERELVAAISSVSSTYADSVKGRFTISRDNAKNTVYLQLNSLKPVDTAVYYCAADSRSPGHDYWGQGTQVTVSS | low polyreactivity |
| QVQLVESGGGLVQAGGSLRLSCAASGSIFDVNAMGRYRQAPGKERELVAAISDSGGSTYYADSVKGRFTISRDNAKNTVYLQMNSLKPEDTAVYYCNADWSWYNYYDFDYWGQGTQVTVSS | low polyreactivity |
| QVQLVESGGGLVQAGGSLRLSCAASGSIFDVNAMGWYRQAPGKERELVAAITSSGGSTYYADSVKGRFTISRDNAKNTVYLQMNSLKPEDTAVYYCAAYSLYTMYWGQGTQVTVSS | low polyreactivity |
| QVQLVESGGGLVQAGGSLRLSCAASGSIFDVNGMGWYRQAPGKERELVATISSDGSTNYADSVKGRFTISRDNAKNTVYLQMNSLKPEDTAVYYCAADRHQVSVISTEVYWGQGTQVTVSS | low polyreactivity |
| QVQLVESGGGLVQAGGSLRLSCAASGSIFDVYAMGWYRPAPGKEREFVATITTSGGNTYYADSVKGRFTISRDHAKNTVHLQMNSLKPEDTAVYYCAKDRVKSPYLVYDSWGQGTQGTVSS | low polyreactivity |
| QVQLVESGGGLVQAGGSLRLSCAASGSIFDWNAMGWYRKAPGKERELVASITGSGGGTNYADSVKGRFTISRDNAKNTVYLQMNSLKPEDTAVYYCAAEVDYSYWPEYARKYYYWGQGTQVTVSS | low polyreactivity |
| QVQLVESGGGLVQAGGSLRLSCAASGSIFDWYAMGWYRQAPGKEGELVAAISSGDSTYYADSVKGRFTISRDNAKITVYLQMNSLKPEDTAVYDCAAEFHDDHPSFDYWGQGTQVTVSS | low polyreactivity |
| QVQLVESGGGLVQAGGSLRLSCAASGSIFDWYAMGWYRQAPGKEGELVAAISSGDSTYYADSVKGRFTISRDNAMNTVYLQMNSLKPEDTAVYYCAAVTKLSGIRYNYWGQGTQVTVSS | low polyreactivity |
| QVQLVESGGGLVQAGGSLRLSCAASGSIFDWYAMGWYRQAPGKERELVAAIDSSGSSTYYADSVKGRFTISRDNAKNTVYLQMNSLKPEDNAVYYCAADSDWIRDWFGSLYGSDYWGQGSQVTVSS | low polyreactivity |
| QVQLVESGGGLVQAGGSLRLSCAASGSIFDWYDMGWYRQAPGKEGELVAAISSGDSTYYADSVKGRFTISRDNAKNTVYLQMNSLKPEDTAVYYCAAVTKLSGIRYNYWGQGTQVTVSS | low polyreactivity |

| Sequence | polyreactivity (PSR sort gate) |
| --- | --- |
| QVQLVESGGGLVQAGGSLRLSCAASGSIFDYNAMGWYTQAPGKERELVAAITSGGSTNYADSVKGRFTISRDNAKNTVYLQMNTLKPEDTAVYYCAADHDYYPTNLDYWGQGTQVTVSS | low polyreactivity |
| QVQLVESGGGLVQAGGSLRLSCAASGSIFDYNSMGMYIQAPGKERELVAAISSGGTTYYADSVKGRFTISLDNAKNTVYLHIKSLKPEDTDVYYCAARRAGWWGFYYWGQCTQVTVSS | high polyreactivity |
| QVQLVESGGGLVQAGGSLRLSCAASGSIFDYNVMGWYRKAPGKERELVAAITYNDGSTYYADSVKGRFTISRDNAKNTVYLQMNSLKPEDTAVYYCAADYPGGGIYWYFYVYDYDYWGQGTQVTVSS | low polyreactivity |
| QVQLVESGGGLVQAGGSLRLSCAASGSIFDYYAMGWYRPAPGKERELVAAISDSGGSTYYADSVKGRFTISRDNAKNTVYLQMNSLKPEDTAVYYCNAVPRYQATWQESYDYDYWGQGTQVTVSS | high polyreactivity |
| QVQLVESGGGLVQAGGSLRLSCAASGSIFDYYAMGWYRQAPGKERELVASISWIGDRTYYADSVKGRFTISRDNAKNTVYLQMNSLKPEDTAVYYCATDYYEDWRGYEVYWYRPYDYWGQGTQVSVSS | high polyreactivity |
| QVQLVESGGGLVQAGGSLRLSCAASGSIFDYYAMGWYRQAPGKERELVSTYYADSVKGRFTISRDNAKNTVYLQMNSLKPEDTAVYYCAKDRGTTGIRDGPAASLYGYEYWGQGTQVTVSS | low polyreactivity |
| QVQLVESGGGLVQAGGSLRLSCAASGSIFEFNAMGWYRQAHGKERELVSAITWSGTSTYYADSVKGRFTISRDNAKNTVYLQMKSLKPEDTAVYYCGADSTDYFYWGQGTQVTVSS | high polyreactivity |
| QVQLVESGGGLVQAGGSLRLSCAASGSIFEGNGMGWYIQAPGKERELVAAITFRSGSTYYADSVKGRFTISLDNAKNTVYLQMNSLKPEDTAVYYCAADEYYQVSAYDYWGQGTQVTVSS | low polyreactivity |
| QVQLVESGGGLVQAGGSLRLSCAASGSIFEKYAMGWYRQAPGKERELVASISKRGGSTNYADSVKGRFTISRDNAKNTVYLQMNSLKPVDTAVYYCAAPANRWSTRWYYDGYDYWGQGTQVTVSS | high polyreactivity |
| QVQLVESGGGLVQAGGSLRLSCAASGSIFENYAMGWYRQAPGKERELVAAITSSGASTYYADSVKGHFTISRDNEKNTVYIQMNILKPEDTAVYYCAADSAFYDEYQEDYWGQGTQVTVSS | low polyreactivity |
| QVQLVESGGGLVQAGGSLRLSCAASGSIFEPNAMGWYRQAPGKVRELVAAITSGGTTYADSVKGRFTISRDNAKNTVYLQMNSLKPEETAVYYCAADYSFVYYYPFDYWGQGTQVTVSS | low polyreactivity |
| QVQLVESGGGLVQAGGSLRLSCAASGSIFEPNAMVWYRQAPGKERELVAVISIDGITYYADSVKGRFTISRDNAKNSVYLQMNSLKPEDTAVYYCAAYLGQGESYGAYDYWGQGTQVTVSS | low polyreactivity |
| QVQLVESGGGLVQAGGSLRLSCAASGSIFEQNVMGWYRQAPGKERELVAAITRGGSTNYADSVKGRFTISRDNAKNTVYLQMNSLKPEDTAVYYCAKRRWLGPSTLDYWGQGTQVTVSS | low polyreactivity |
| QVQLVESGGGLVQAGGSLRLSCAASGSIFERYAMGWYRPAPGKERELVAGISSDGSTYADSVKGRFTISRDNAKNTVFLQMNSLKPEDTAVYYCAAAAWDPKGSRYDYWGQGTQVTVSS | low polyreactivity |
| QVQLVESGGGLVQAGGSLRLSCAASGSIFESYAMGWYRQAPGKERELVADITYDGGITYYADSVKGRFTISRDNAKNTVYLQLNSLKPEDTAVYYCAAQAWWGYYSRGPMDYWGQGTQVTVSS | low polyreactivity |
| QVQLVESGGGLVQAGGSLRLSCAASGSIFESYVMGWYRQAPGKERELVAAISSGGSTYYADSVKGRFTISRDNAKNTVYLQMNSLKPEDTAVYYCAANYDGGYLDYEAGYRLEYDYWGQGTQVTVSS | low polyreactivity |
| QVQLVESGGGLVQAGGSLRLSCAASGSIFEVYAMGWYRQAPGKERELVAAISGNGGSTYADSVKGRFTISRDNAKNTVYLQMNSLKPEDTAVYYCAAVPYGYGLASDSIFDYWGQGTQVTVSS | high polyreactivity |
| QVQLVESGGGLVQAGGSLRLSCAASGSIFEYNAMGWYRQAPWKERELVAAITSGGSTNYADSVKGRFTISRDNAKNTVYLQMNSLKPEDTAVYYCAKKYRSVPKYLYRITKYNYWGQGTQVTVSS | low polyreactivity |
| QVQLVESGGGLVQAGGSLRLSCAASGSIFEYYAMGWYRQAPGKERELVASITSSGTTYYADSVKGRFTISRDNAKNTVYLQMNSLKPEDTAVYYCAAYFAYLDSYVTYEYDYWGQGTQVTVSS | low polyreactivity |
| QVQLVESGGGLVQAGGSLRLSCAASGSIFEYYAMGWYRQAPGKERELVATITGTDSTYYADSVKGRFTISRDNAKNTVYLQMNSLKPEDTADCAADRAASRPDYDYWGQGTQVTVSS | low polyreactivity |
| QVQLVESGGGLVQAGGSLRLSCAASGSIFEYYAMGWYRTAPGKERELVAAISSGGPTYYADSVKGRFTISRDNAKNTVYLQMNSLKPEDSAVYYCNADLWYPDYDYWGQGTQVTVSS | low polyreactivity |
